Experimental data: the DeepSol protein solubility set

Test: soluble on expression in E. coli; label from the status in PepcDB or PDB records

Sequence | soluble on expression in E. coli
MGSDKIHHHHHHMGIDIKHEESSLVGLLTYIGRLKDEQFDYVIDLHNVIRSKIIRFYLRFFGVKGFSLKKPRLQLRQLTAKPPKKPTRLPSVIERYAQVFHKAGLEIHPPYPILLNDSGHISTELPIVEIGSGHHLIGIAPFAGHEAKTYPPEKMHEVVRTLAERDDVQIFLFGGKGKEKNILEQWADESPRIVSVAGLLSLPEELSLIHALRCMVSMDSANMHFASLVGTRVISIWCATHPAAGFLGYGQRIEDCIGADLDCRPCSVFGNKPCFRKDYACRTQIEPQLIINKIVSTLTDLNSDETEN | not soluble
MNSAVGAELFMGDDGVSLRPGLGGTESVLESWRYIMGKLRVGRFLISSRVNGPGRRFVIWFQGCPIRCRGCLNPEFHDEDGGHLIETARLVDMIRDLRDEIEGVTFTGGEPLAQAMELVKLAGAVKSMGLTVVCFTGYEMDEILKGNIEGGLELLEFVDVLIDGPYIEEKSAPLLWRGSTNQDVYFLTERYAEFRDRVMACSEMEAELKVGADGVYMTGIFDVEFWEELRRRLGDGSLEHHHHHH | not soluble
MWQQKSFQQNEKGVLYLVPTPIGNLEDMTFRAIRILKEADLIAAEDTRQTKKLCNYFEIETPVMSYHEHNKEVSGKKILEKLDEGKTVALVSDAGMPCISDPGYDIVVEAVAEQYHVIPLPGANAALTALIASGLQTKQFYFYGFLQRNKKERKMELEKLRYVQTTMMFYEAPHRLDDTLISMQEVLGNREIVLCRELTKKFEEFIRGTVEEAIEWTKQNEVRGEFCILVAGSTEEPAPEEQWWESISVYNHIEHYINEKGMNSKEAIKTVAKDRDLSKRDVYQIYHVDKK | soluble
MGSDKIHHHHHHMDTQRIKDDEDAIRSALTSLKTATGIPVTMFATVLQDNRLQITQWVGLRTPALQNLVIEPGVGVGGRVVATRRPVGVSDYTRANVISHEKDSAIQDEGLHSIVAVPVIVHREIRGVLYVGVHSAVRLGDTVIEEVTMTARTLEQNLAINSALRRNGVPDGRGSLKANRVMNGAEWEQVRSTHSKLRMLANRVTDEDLRRDLEELCDQMVTPVRIKQTTKLSARELDVLACVALGHTNVEAAEEMGIGAETVKSYLRSVMRKLGAHTRYEAVNAARRIGALP | not soluble
MNNNDIEYNAPSEIKYIDVVNTYDLEEEASKVVPHGGFNYIAGASGDEWTKRANDRAWKHKLLYPRLAQDVEAPDTSTEILGHKIKAPFIMAPIAAHGLAHTTKEAGTARAVSEFGTIMSISAYSGATFEEISEGLNGGPRWFQIYMAKDDQQNRDILDEAKSDGATAIILTADSTVSGNRDRDVKNKFVYPFGMPIVQRYLRGTAEGMSLNNIYGASKQKISPRDIEEIAGHSGLPVFVKGIQHPEDADMAIKRGASGIWVSNHGARQLYEAPGSFDTLPAIAERVNKRVPIVFDSGVRRGEHVAKALASGADVVALGRPVLFGLALGGWQGAYSVLDYFQKDLTRVMQLTGSQNVEDLKGLDLFDNPYGYEY | soluble
GSLATCIGEKIEDFKVGNLLGKGSFAGVYRAESIHTGLEVAIKMIDKKAMYKAGMVQRVQNEVKIHCQLKHPSILELYNYFEDSNYVYLVLEMCHNGEMNRYLKNRVKPFSENEARHFMHQIITGMLYLHSHGILHRDLTLSNLLLTRNMNIKIADFGLATQLKMPHEKHYTLCGTPNYISPEIATRSAHGLESDVWSLGCMFYTLLIGRPPFDTDTVKNTLNKVVLADYEMPSFLSIEAKDLIHQLLRRNPADRLSLSSVLDHPFMSRNSSTKSKDLGTVEDSIDSGHATISTAITASSSTSISGSLFDKRRLLIGQPLPNKMTVFPKEG | soluble
GMETTHYSIAQHFSSGDFPAVYACFNDIIEWNIIGNQVVKGKADVIDFCNKMLPEMKGAVLTNDNVIQNENQIVIEGKCRYFDAEGKEAFVSYCDIYRFENDTIKTITSYCI | soluble
WSYEHLHLTNRIKLLYAPTFRDNELGMAKLHLDIAEMKQALGNEYQLILKLHPSISNDLEKLDDDFVIYVDKETPIETLLPVVDILITDYSSIPFEFALLQKPMIFFTYDLTEYNNARGLSDGFLETIPGPHVFTTTELIEVIQNNTFDLEKVRLFAEKWNKYSDGFSSERFVSFLKE | not soluble
MCEIFIRANQRSYSVQARSLRLHGVATSVRLEQLFWDVLEEIAARDGMRVTQLIERLYDELVQYRGEAANFTSFLRVCCLRYQVLQAEGRIPADATVPIRSLDAQAVLRGLPANLYDSRPLG | soluble
MKHSHLYELQPDPYDFTQRKTCRVCLFKDVKNAAELSQQLKEGKIDAALIRAELVLEPFVLLAAANRAVHQSAHNRMSCRSLAAELVYSLSPSRNITDSLVTFGIAEHSTAIIAAIFDDDSGKAMKKLAKAIKGTPVPLMEGLPKFANVNMIKKVYQVGNPAFVEEGLSDHIVSRMVSKDFVS | not soluble
KWFRIDHVQEAHDAGVAVEDLFTRQIKVNHVVTGSDLVIDIHHTLGLEIIVSRIERDGQQTLPTASSRIHMGDVLSVVGTAEELDKAAHVLGDLLPGDPFHGHDLDYRRIFVSNQDLVGIPLAKLRPRLSGILITRVRRGDHDHVATPETVLQLGDRVRVVAAHDRMKSVTALFGDSYRRLSD | not soluble
MNIYKLIGRNLEITDAIRDYVEKKLARLDRYQDGELMAKVVLSLAGSPHVEKKARAEIQVDLPGGLVRVEEEDADLYAAIDRAVDRLETQVKRFRERRYVGKRHSYQGPPPPEVRDLEALRKPEEEEGPRIVRVKRFEMKPMDPEEAAFQMEALGHSFFVFRNAKTDEINVIYRRKDGNYGLIEPA | soluble
MEKLIAIQQNTIKQETVQTMSSREIAELCGKRHGHVMRDIRKLFSELKIDLSNFAGLYKDSTGRTLPCYHLPKREALIVILGYNTVLRAKIIDYWKKLEEQAANPQIDFSSPEIRAAIMMHLKNKIKQTA | soluble
MRCPNCNSLDTQVKDSRPTEDSSVIRRRRVCIACNFRFTTFERVQLRELIVIKRNGRRVPFDRDKLMRSVQISLRKRPVDPERVEQMVSAIVRELESGGEAEISSETIGESVMDHLRKLDDVAYVRFASVYRNFREAKDFEAVLGELSHEDEARAALVRK | not soluble
MRWVSALEKRNFLTSFLHNHRLKHPDARFVLKYLLQHPHLLENVQFTETEQKQGRWLIISTAMAEEEGLVFYRRGQKSTSLAAIMGDLALHPNEPLYLTLHFPGKARNFSYLRLIDHQAFENVRRHERHEKMAKAAEQVLDEALKRHEVSILKMQIDQALDRKDMEWFQMLTEQLKKYEGQS | not soluble
MKPLLETIDTRFGTTNKHAFSRGNTLPYTGVPFGMNYFVPQTSDQDGSWFFDPHLPIFQGIRLTHQPSPWIGDYSWLLLTPVTSQLGGDSLFHRQSSYDIDKACFQPHYLKLFSLRYQIETQLTPTCYGASIRLNQKQGKALSLYLHAADELTVEQVDKRTLALRQEGKTETNKNSLTMFTLEHHHHHH | not soluble
MFGTNGNAGIAVTDPTKQAEIYRALESLKKDESGWKKSVDSFIGPHKPSPEEQFLLLQVIEDYLNKRYHSSSQGDVSVIRTFLLHYTKNSRSSTVDQPAFLTNKMAHIFSLVFAADFPERWSSFFNDLFFSDNINDRKVAFFYLKVLLAIDTEVVNRDIQRSKNESDRNIKIKDAMREICINEIAKSWLTIANALPEDNVIQCLVLDNIASYVDWIELDLVANDYVMPLIISKFQNPATSESATAAVCSLLEKGMPAEKKVGLTLTIMTVLRSNGLLTVNDNNDEEEVTRVGSLVNTLGLVLLDVQNKLCASSILEKEQECCVQEMAGLAEPALVVLNNEDPDLSCMCIDYIRAYCSFLLKFHPNETNFIEKVIRAGLQRYVMNDDMTVGGDGEDEVEFQEFRRELRSMLNVIGLKRPEAIINAVEPWTAEVTSGGSSIPVNRIEALLNVIFHLHEIIPSNMLQSPREGISQRAARLPIVILEGLVLDGRCPAIHVLYFELACRYERLLVLQPQPVVIPHIAAAFLDQRGISISSANVRTRIVYLFCRFVKSHKTVLGPLVSEVITRLAPLLAVSPQADTNQLLSPEDQGYIFEATATLIVFGDLTSEMKSQYVGELASTLAMKFENGLVELNTARARKADEETIQAILQFMSNIIGYSSRMSKAFNNAQSMKACNCIDIYLRLIKLYLETLSPQNAFLLESTRQFAHRLVVSMENELMPYMNGIFDKLALVSTDLDSMHHLLIFCHQTVAKYKKAMLTSGVDLGNVLAIAARASLQEQENNIPAKDDSQRALLYVQRAFVQLLYTVIASDCTPALNTTPGLLDHVLESAARLALSSDQTAQKVALSCLAKISLITPSWSARTLRVALEIPSLSHITPSDAGSTLVVHEVCATLTSLHQSDPDGFTRALRELVPNGFSDQLLSALTNLKGKNLDKQVMNLYSSLRNQSAQ | not soluble
MAHHHHHHSGMSGMRVYLGADHAGYELKQRIIEHLKQTGHEPIDCGALRYDADDDYPAFCIAAATRTVADPGSLGIVLGGSGNGEQIAANKVPGARCALAWSVQTAALAREHNNAQLIGIGGRMHTVAEALAIVDAFVTTPWSKAQRHQRRIDILAEYERTHEAPPVPGAPA | soluble
MEKIKNTCKIWEYIYTISRDRLYQKIPKEEFLRLSTSDKEYLEAIKNLNNPKISELARDMGYTKTAVTTMVQKLEKNGYLKKIKSKEDKREINVELTDKGRYIFELKEEVYEYTIKRIKEVLTPQELGAFKAILEKIAKEFDQELGKIYEKNENIDKSDGPPII | not soluble
MGSDKIHHHHHHMQEDISRKSPMLSNIKSWYRRRIIENHSVPDDIWQNAIARLRFLQALEAVELERLRECVVLFLHVKQISGAHGLVITDEMRVLIAAQACILILNLDLDYYDGWVEIIVYPGEFIRDYEYVDEDGIVHHAVEPASGESWLGGPVILSWEDAVAAVSGTEISQGYNVVIHEFAHKLDMLNGEANGFPPIHPDMSRQAWSEAFSKAYADFCRSIDAGEMMEIDLYAAESPAEFFAVISEAFFEMPISVRIHFPAVYEQLALFYRQDPAQRRSEP | not soluble
MHANGIFFVPKYSSKYGKKQQTEKQWPVPEMGWQPGAVNSNFALQSSALILIGGFIRIIKVDSNATSCIHFGGIDAKPLLLQMNAYSLPAAEIRTKNGRIVARVF | not soluble
MSITEDIDDLKTAIENNEPIRKGIEETMHRASQIRIKQRYNCAEQEVTQMRAPFLGFSVFVRFQSRARAHTIKIINEDEVEQMLASSPVPYS | not soluble
MGSDKIHHHHHHMDFVDVPAVTRDATILSLRDVSRKLVRELGFMRSTLANSDLAPSAVHAVLEIGMKPGITAKDLATILRLDKSNTSRQIARLEAAGFVERRVSSDDARSSELYLSAEGKSLRARIDRFATSQVSNALRHMAPADQQALLRSLALYANALAQDNAGNAPPATPEAVQIIEGYQPGCIGDIASLHGRFYAAHWGFGAFFEKRVATELAAFAGSLPVDGKALWLYVENGRSLASLAIDGDKTTGIAHLRWFIVDESLHGSGIGRELMARAMRFVETQGFRETHLWTFKGLEAARHLYESHGFRLSEEFEGSQWGTTVTEQRFNRV | not soluble
MEARNAEGLESCIEKIQEVKLSSFAELKAFRERKVALITGITGQDGSYLAELLLSKGYKVHGIIRRSSSFNTARIEHLYGNPVTHNGSASFSLHYGDMTDSSCLIKLISTIEPTEIYHLAAQSHVKVSFDLPEYTAEVDAVGTLRLLDAIHACRLTEKVRFYQASTSELYGKVQEIPQSELTPFYPRSPYAVAKMYGYWIVVNYREAYKMFACNGILFNHESPRRGETFVTRKITRSVAKISLRQQEHIELGNLSALRDWGHAKEYVEAMWRILQQDTPDDFVIATGKQFSVREFCNLAFAEIGEQLVWEGEGVDEVGKNQDGVVRVKVSPKYYRPTEVETLLGNPAKARKTLGWEPKITVPELVKEMVASDIALMEADPMA | not soluble
